From patent publication US20240018513A1, “SYNTHETIC INTRONS FOR TARGETED GENE EXPRESSION” (FRED HUTCHINSON CANCER CENTER, priority 2020, published 2024)

Key:
WT K562 cells = assay: Mini-screen: pooled synthetic intron mini-library in HSV-TK, GCV treatment, full-length intron sequencing from genomic DNA; assay type: cell-based; conditions: genotype WT (SF3B1+/+) K562; GCV 100 ug/mL; day 6; vector hPGK-PuroR-P2A-HSV-TK
Source text: Therefore, a massively parallel splicing assay was developed to map and functionally interrogate key sequence features within the synthetic intron. First, a pilot mini-library of eight synthetic introns was synthesized, seven of which were much shorter (lengths of 100-158 nt) than the parent synthetic intron (synMTERFD3i1-250), and each with one or more perturbations to potentially critical features (FIG. 2E). This mini-library was cloned into HSV-TK, introduced into WT or SF3B1-mutant K562 cells with a lentiviral vector at a low multiplicity of infection, and treated with GCV. Relative depletion of each construct was measured by high-throughput sequencing of the entire introns from genomic DNA after six days of treatment (TABLE 1).
Each synthetic intron used in the mini-library was ordered individually as a gBlock (Integrated DNA Technologies), consisting of the desired intron flanked by homology arms for cloning (5′ arm: […] (SEQ ID NO:158); 3′ arm: […] (SEQ ID NO:159; TABLE 3). The gBlocks were then mixed in equal proportions before being cloned into hPGK-PuroR-P2A-HSV-TK using a previously published strategy for pooled cloning (Thomas, J. D. et al. RNA isoform screens uncover the essentiality and tumor-suppressor activity of ultraconserved poison exons. Nature genetics 52, 84-94 (2020), incorporated herein by reference in its entirety). This intron mix was then amplified using NEBNext High Fidelity Ready Mix (New England Biolabs) and purified using 1.8×AMPure XP SPRI beads (Beckman Coulter). The backbone for the library was amplified using Q5 polymerase (New England Biolabs). The library was transformed and amplified using Endura ElectroCompetent Cells (Lucigen, 60242-2) and large LB plates. The library was maxiprepped using a Macherey-Nagel MaxiPrep kit (Thermo Fisher Scientific, Cat 740414.10).
WT or SF3B1-mutant K562 cells were infected with lentivirus encoding the mini-library at an MOI of 0.3 and untreated or treated with GCV (100 ug/mL) for 6 days. Genomic DNA was collected at day 6 and the resulting Illumina libraries were sequenced with 2×150 bp reads (Illumina MiSeq). Depletion/enrichment of each construct was estimated as follows. For each sample, reads were normalized to the total reads mapped. The relative fraction of reads mapping to each intron was then estimated by dividing the numbers of normalized reads mapped to an intron by the total reads mapped in the sample. The standard deviation was calculated using the sample proportion P for each intron (σ=sqrt [P(1−P)/n]). A fold-change was calculated for each intron by dividing the proportion of the intron in the treated GCV samples by the fraction of the intron in the untreated samples. Error propagation was used to estimate the standard deviation. The final relative fold-changes were computed by normalizing fold-changes such that the fold-change of synMTERFD3i1-250 in the pilot screen was identical to the experimentally measured fold-change in a single-construct experiment (FIG. 2C, 100 μg/mL of GCV).

MOLM-13 cells = assay: MOLM-13 xenografts (intravenous), doxycycline-inducible SF3B1 WT or K700E, GCV or PBS; assay type: in vivo, NSG mice; conditions: GCV-treated arm engrafted with SF3B1K700E-expressing MOLM-13 cells
Source text: FIGS. 4A-4I: Synthetic introns enable mutation-dependent cancer cell targeting in vivo. (4A) Schematic of xenograft experiments with K562 cells expressing Luciferase and HSV-TK interrupted by synMTERFD3i1-150. K562 cells were intravenously injected into sub-lethally irradiated (250 cGy) NOD-scid IL2rgnull (NSG) mice (2M cells/mouse). n=10 (WT) and 9 (SF3B1-mutant) mice per cohort. (4B) Quantification of tumor burden, estimated by whole-body bioluminescent signal. Each point represents a single mouse. (4C) Representative bioluminescence images from cohorts described in (4A). (4D) Survival of mice from cohort described in (4A). p computed with logrank test. Comparisons not illustrated on plot are not significant (p+/+ GCV vs. PBS=0.534; pK700E/+PBS vs.+/+PBS=0.823). The cause of death for the one GCV-treated animal engrafted with an SF3B1-mutant leukemia which died by experiment endpoint was unclear, as this animal had minimal leukemic burden by imaging or necropsy. (4E) Survival curves of NSG mice engrafted with SF3B1 WT (top) or SF3B1 K700E (bottom) MOLM-13 cells expressing Luciferase and HSV-TK interrupted by synMTERFD3i1-150 followed by treatment with either PBS or GCV. pK700E/+ PBS vs. pK700E/+GCV=0.011. n=10 mice/group. […]
Next, the potential efficacy of using synthetic introns was tested in other cancer models. […] Leukemia burden and survival were monitored. […]

B1: intron_26: 150 nt MTERFD3 intron 1-derived synthetic intron, deletion 25to125; SEQ ID NO 58/66 (nucleic acid)
DNA 1: GTGAGTCGCCCCCTTCCTCTGCTCCGAGAGGGAAATGGGAATTAGGGTGGTGGCAGAGCCCAAAGAGGCCTTGTAGGCCATGGTAAGGCATTTCTATGTTTTATTTTACTTTGTCTTTATCCTAAAATGCCATTGGCAAGTTTATTGCAG
DNA 2: GTGAGTCGCCCCCTTCCTCTGCTCCGAGAGGGAAATGGGAATTAGGGTGGTGGCAGAGCCCAAAGAGGCCTTGTAGGCCATGGTAAGGCATTTCTATGTTTTATTTTACTTTGTCTTTATCCTAAAATGCCATTGGCAAGTTTATTGCAG
How did the “fold-change (estimated fold-change in intron abundance in gDNA)” value (WT K562 cells) turn out when B1 was run?
The value was 1.034.

And the “survival and tumor burden” value (MOLM-13 cells)?
Its value is “significantly prolonged survival and reduced tumor burden”.
